Experimental data: the Immune Epitope Database (IEDB)

Key:
Experiment in all cases: IEDB peptide-MHC binding, purified MHC/competitive/radioactivity; ≥ and ≤ were set here for values at or beyond the usual limits of such assays
[1] = molecular target: HLA-A*02:01
[2] = molecular target: HLA-A*02:02
[3] = molecular target: HLA-A*02:03
[4] = molecular target: HLA-A*02:06
[5] = molecular target: HLA-A*68:02
[6] = source organism: Vaccinia virus WR
[7] = source organism: Hepacivirus hominis
[8] = source organism: Influenza A virus
[9] = source organism: Mammarenavirus guanaritoense

Sequence | IC50 [1, 6] [nM] | IC50 [2, 6] [nM] | IC50 [3, 6] [nM] | IC50 [4, 6] [nM] | IC50 [5, 6] [nM] | also measured
IINSVSIILA | 895 | 719 | 890 | 957 | 154 | –
GLMWLSYFV | – | – | – | – | – | IC50 ([1]; source organism: SARS-CoV1): 0.71 nM; IC50 ([2]; source organism: SARS-CoV1): 0.2 nM; IC50 ([3]; source organism: SARS-CoV1): 0.82 nM; IC50 ([4]; source organism: SARS-CoV1): 0.97 nM; IC50 ([5]; source organism: SARS-CoV1): 44 nM
TIAHINTLI | 255 | 21 | 20 | 571 | 129 | –
ATICLKNEGV | 239 | 436 | 71 | 42 | 87 | –
VTFINDYANL | 2480 | 99 | 247 | 148 | 527 | –
FLAFVVFLLV | – | – | – | – | – | IC50 ([1]; source organism: SARS-CoV1): 78 nM; IC50 ([2]; source organism: SARS-CoV1): 2.4 nM; IC50 ([3]; source organism: SARS-CoV1): 211 nM; IC50 ([4]; source organism: SARS-CoV1): 2980 nM; IC50 ([5]; source organism: SARS-CoV1): 4320 nM
HILHAYCGI | 1480 | 123 | 66 | 359 | 143 | –
VVFLHVTYV | – | – | – | – | – | IC50 ([1]; source organism: SARS-CoV1): 3.9 nM; IC50 ([2]; source organism: SARS-CoV1): 7.8 nM; IC50 ([3]; source organism: SARS-CoV1): 0.28 nM; IC50 ([4]; source organism: SARS-CoV1): 3.9 nM; IC50 ([5]; source organism: SARS-CoV1): 1 nM
GVMYAFTTPL | 83 | 34 | 44 | 45 | 2540 | –
MVLMTHFFSV | – | – | – | – | – | IC50 [1, 7]: 146 nM; IC50 [2, 7]: 808 nM; IC50 [3, 7]: 174 nM; IC50 [4, 7]: 15 nM; IC50 [5, 7]: 13 nM
ALAEHISDSI | 8.7 | 0.2 | 0.34 | 163 | 272 | –
SVMNFIPII | 1.7 | 13 | 6.3 | 2.8 | 58 | –
RAFIYSIMET | 659 | 81 | 70 | 578 | 852 | –
TIFDIVSKCI | 596 | 198 | 94 | 701 | 109 | –
ELTTVFIKYV | 2560 | 2800 | 719 | 463 | 81 | –
AIMTRCLAV | – | – | – | – | – | IC50 ([1]; source organism: SARS-CoV1): 5.9 nM; IC50 ([2]; source organism: SARS-CoV1): 51 nM; IC50 ([3]; source organism: SARS-CoV1): 15 nM; IC50 ([4]; source organism: SARS-CoV1): 27 nM; IC50 ([5]; source organism: SARS-CoV1): 1300 nM
LLALQQLEV | – | – | – | – | – | IC50 ([1]; source organism: SARS-CoV1): 1 nM; IC50 ([2]; source organism: SARS-CoV1): 0.14 nM; IC50 ([3]; source organism: SARS-CoV1): 0.29 nM; IC50 ([4]; source organism: SARS-CoV1): 42 nM; IC50 ([5]; source organism: SARS-CoV1): 83 nM

Sequence | IC50 [1, 6] [nM] | IC50 [2, 6] [nM] | IC50 [3, 6] [nM] | IC50 [4, 6] [nM] | IC50 [5, 6] [nM] | also measured
GIFVDTMSI | 3020 | 2880 | 936 | 1620 | 3980 | –
FLNGSCGSV | – | – | – | – | – | IC50 ([1]; source organism: SARS-CoV1): 5.8 nM; IC50 ([2]; source organism: SARS-CoV1): 1 nM; IC50 ([3]; source organism: SARS-CoV1): 0.57 nM; IC50 ([4]; source organism: SARS-CoV1): 64 nM; IC50 ([5]; source organism: SARS-CoV1): 318 nM
RLPSETFPNV | 0.11 | 173 | 14 | 0.58 | 91 | –
SCLENFRAYV | – | – | – | – | – | IC50 [1, 8]: 20 nM; IC50 [2, 8]: 90 nM; IC50 [3, 8]: 55 nM; IC50 [4, 8]: 162 nM; IC50 [5, 8]: 224 nM
CIVQSVLRDI | 1180 | 218 | 158 | 849 | 3480 | –
IVNCLSLSNL | 1930 | 338 | 128 | 1280 | 3590 | –
IVPEFAKQYV | 5 | 10 | 18 | 15 | 3.5 | –
MIYDLNAVTT | 278 | 897 | 477 | 429 | 114 | –
ITMTTVYHI | – | – | – | – | – | IC50 ([1]; source organism: SARS-CoV1): 8.2 nM; IC50 ([2]; source organism: SARS-CoV1): 19 nM; IC50 ([3]; source organism: SARS-CoV1): 7.2 nM; IC50 ([4]; source organism: SARS-CoV1): 2.3 nM; IC50 ([5]; source organism: SARS-CoV1): 6.1 nM
LMGHFSWWTA | – | – | – | – | – | IC50 ([1]; source organism: SARS-CoV1): 18 nM; IC50 ([2]; source organism: SARS-CoV1): 19 nM; IC50 ([3]; source organism: SARS-CoV1): 135 nM; IC50 ([4]; source organism: SARS-CoV1): 97 nM; IC50 ([5]; source organism: SARS-CoV1): 82 nM
ALYSPPLISI | 1130 | 1.4 | 150 | 162 | 323 | –
TMSIYIAVA | 136 | 81 | 41 | 786 | 300 | –
IVDSMIIGHI | 1060 | 507 | 208 | 561 | 53 | –
EMVEYLENQL | 485 | 212 | 209 | 420 | 1650 | –
VMYASALVLL | – | – | – | – | – | IC50 ([1]; source organism: SARS-CoV1): 5.7 nM; IC50 ([2]; source organism: SARS-CoV1): 0.25 nM; IC50 ([3]; source organism: SARS-CoV1): 4 nM; IC50 ([4]; source organism: SARS-CoV1): 41 nM; IC50 ([5]; source organism: SARS-CoV1): 756 nM
IMTSTRTIIL | 540 | 1020 | 52 | 438 | 91 | –
TLVDLCFWS | – | – | – | – | – | IC50 [1, 9]: 61 nM; IC50 [2, 9]: 58 nM; IC50 [3, 9]: 524 nM; IC50 [4, 9]: 134 nM; IC50 [5, 9]: 4880 nM
